Here are results for three molecules from patent US20160272693A1 (ZEALAND PHARMA A S, published 2016).

This assay concerns the target T1, human amylin receptor 3 (hAMYR3), hCTR2 co-expressed with human receptor activity modifying protein 3 (hRAMP3) (human, UniProt P30988 25-474; O60896 24-148).
T1 sequence (looked up) 1: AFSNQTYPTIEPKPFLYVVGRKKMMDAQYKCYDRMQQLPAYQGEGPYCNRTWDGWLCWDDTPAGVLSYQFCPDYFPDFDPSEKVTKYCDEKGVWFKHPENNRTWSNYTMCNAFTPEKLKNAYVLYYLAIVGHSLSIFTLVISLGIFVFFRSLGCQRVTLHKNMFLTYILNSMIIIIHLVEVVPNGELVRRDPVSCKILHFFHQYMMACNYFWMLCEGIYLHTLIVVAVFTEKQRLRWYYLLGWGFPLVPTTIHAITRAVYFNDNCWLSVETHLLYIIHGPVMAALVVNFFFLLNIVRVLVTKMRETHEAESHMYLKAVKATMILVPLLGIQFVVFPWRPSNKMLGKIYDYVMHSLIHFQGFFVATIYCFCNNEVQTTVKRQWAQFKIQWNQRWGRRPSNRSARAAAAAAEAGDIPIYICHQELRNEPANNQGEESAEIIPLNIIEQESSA
T1 sequence (looked up) 2: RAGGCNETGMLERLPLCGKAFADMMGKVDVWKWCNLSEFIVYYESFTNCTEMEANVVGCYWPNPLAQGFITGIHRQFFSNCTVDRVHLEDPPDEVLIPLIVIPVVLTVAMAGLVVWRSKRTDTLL
The assay can be described thus: cell-based or functional assay.

*1 amine or outer side, *2 acyl side, *3 side chain or, on linkers, in order; H or OH if unused. Bridges are numbered along the chain shown (N, C = ends). [ ]: non-standard residue; d: D form. The star is where a group is joined. C20 diacid = O=C(O)CCCCCCCCCCCCCCCCCCC(=O)*; γGlu = O=C(O)[C@H](CCC(=O)[*:2])N[*:1]; Hyp = O=C(O)[C@@H]1C[C@@H](O)CN1; NMeI = CC[C@H](C)[C@H](NC)C(=O)O; Sar = CNCC(=O)O

B1: [19CD]-isoGlu-R-C( )-NTAT-C( )-ATQRLADFLQRSSF-Gly(Me)-A-Ile(Me)-LSSTEVGSGT-Hyp-NH2 (Compd. 81) (peptide)
peptide: {C20 diacid-γGlu}-RCNTATCATQRLADFLQRSSF[Sar]A[NMeI]LSSTEVGSGT[Hyp]-NH2
modifications: disulfide 2-7
SMILES: CC[C@H](C)[C@@H](C(=O)N[C@@H](CC(C)C)C(=O)N[C@@H](CO)C(=O)N[C@@H](CO)C(=O)N[C@H](C(=O)N[C@@H](CCC(=O)O)C(=O)N[C@H](C(=O)NCC(=O)N[C@@H](CO)C(=O)NCC(=O)N[C@H](C(=O)N1C[C@H](O)C[C@H]1C(N)=O)[C@@H](C)O)C(C)C)[C@@H](C)O)N(C)C(=O)[C@H](C)NC(=O)CN(C)C(=O)[C@H](Cc1ccccc1)NC(=O)[C@H](CO)NC(=O)[C@H](CO)NC(=O)[C@H](CCCNC(=N)N)NC(=O)[C@H](CCC(N)=O)NC(=O)[C@H](CC(C)C)NC(=O)[C@H](Cc1ccccc1)NC(=O)[C@H](CC(=O)O)NC(=O)[C@H](C)NC(=O)[C@H](CC(C)C)NC(=O)[C@H](CCCNC(=N)N)NC(=O)[C@H](CCC(N)=O)NC(=O)[C@@H](NC(=O)[C@H](C)NC(=O)[C@@H]1CSSC[C@H](NC(=O)[C@H](CCCNC(=N)N)NC(=O)CC[C@H](NC(=O)CCCCCCCCCCCCCCCCCCC(=O)O)C(=O)O)C(=O)N[C@@H](CC(N)=O)C(=O)N[C@@H]([C@@H](C)O)C(=O)N[C@@H](C)C(=O)N[C@@H]([C@@H](C)O)C(=O)N1)[C@@H](C)O
With B1, the “hAMYR3 EC50 (nM); cAMP induction” value came to 0.23 nM.

B2: [19CD]-isoGlu-R-C( )-NTAT-C( )-ATQRLADFLQRSSF-Gly(Me)-A-Ile(Me)-LSSTEVGSTT-Hyp-NH2 (Compd. 83) (peptide)
peptide: {C20 diacid-γGlu}-RCNTATCATQRLADFLQRSSF[Sar]A[NMeI]LSSTEVGSTT[Hyp]-NH2
modifications: disulfide 2-7
SMILES: CC[C@H](C)[C@@H](C(=O)N[C@@H](CC(C)C)C(=O)N[C@@H](CO)C(=O)N[C@@H](CO)C(=O)N[C@H](C(=O)N[C@@H](CCC(=O)O)C(=O)N[C@H](C(=O)NCC(=O)N[C@@H](CO)C(=O)N[C@H](C(=O)N[C@H](C(=O)N1C[C@H](O)C[C@H]1C(N)=O)[C@@H](C)O)[C@@H](C)O)C(C)C)[C@@H](C)O)N(C)C(=O)[C@H](C)NC(=O)CN(C)C(=O)[C@H](Cc1ccccc1)NC(=O)[C@H](CO)NC(=O)[C@H](CO)NC(=O)[C@H](CCCNC(=N)N)NC(=O)[C@H](CCC(N)=O)NC(=O)[C@H](CC(C)C)NC(=O)[C@H](Cc1ccccc1)NC(=O)[C@H](CC(=O)O)NC(=O)[C@H](C)NC(=O)[C@H](CC(C)C)NC(=O)[C@H](CCCNC(=N)N)NC(=O)[C@H](CCC(N)=O)NC(=O)[C@@H](NC(=O)[C@H](C)NC(=O)[C@@H]1CSSC[C@H](NC(=O)[C@H](CCCNC(=N)N)NC(=O)CC[C@H](NC(=O)CCCCCCCCCCCCCCCCCCC(=O)O)C(=O)O)C(=O)N[C@@H](CC(N)=O)C(=O)N[C@@H]([C@@H](C)O)C(=O)N[C@@H](C)C(=O)N[C@@H]([C@@H](C)O)C(=O)N1)[C@@H](C)O
Turning to B2, the “hAMYR3 EC50 (nM); cAMP induction” value is 0.32 nM.

B3: [19CD]-isoGlu-R-C( )-NTAT-C( )-ATQRLADFLQRSSF-Gly(Me)-A-Ile(Me)-LSSTEVGSTTP-NH2 (Compd. 82) (peptide)
peptide: {C20 diacid-γGlu}-RCNTATCATQRLADFLQRSSF[Sar]A[NMeI]LSSTEVGSTTP-NH2
modifications: disulfide 2-7
SMILES: CC[C@H](C)[C@@H](C(=O)N[C@@H](CC(C)C)C(=O)N[C@@H](CO)C(=O)N[C@@H](CO)C(=O)N[C@H](C(=O)N[C@@H](CCC(=O)O)C(=O)N[C@H](C(=O)NCC(=O)N[C@@H](CO)C(=O)N[C@H](C(=O)N[C@H](C(=O)N1CCC[C@H]1C(N)=O)[C@@H](C)O)[C@@H](C)O)C(C)C)[C@@H](C)O)N(C)C(=O)[C@H](C)NC(=O)CN(C)C(=O)[C@H](Cc1ccccc1)NC(=O)[C@H](CO)NC(=O)[C@H](CO)NC(=O)[C@H](CCCNC(=N)N)NC(=O)[C@H](CCC(N)=O)NC(=O)[C@H](CC(C)C)NC(=O)[C@H](Cc1ccccc1)NC(=O)[C@H](CC(=O)O)NC(=O)[C@H](C)NC(=O)[C@H](CC(C)C)NC(=O)[C@H](CCCNC(=N)N)NC(=O)[C@H](CCC(N)=O)NC(=O)[C@@H](NC(=O)[C@H](C)NC(=O)[C@@H]1CSSC[C@H](NC(=O)[C@H](CCCNC(=N)N)NC(=O)CC[C@H](NC(=O)CCCCCCCCCCCCCCCCCCC(=O)O)C(=O)O)C(=O)N[C@@H](CC(N)=O)C(=O)N[C@@H]([C@@H](C)O)C(=O)N[C@@H](C)C(=O)N[C@@H]([C@@H](C)O)C(=O)N1)[C@@H](C)O
On to B3, for which the “hAMYR3 EC50 (nM); cAMP induction” value amounted to 0.53 nM.
